Results published in article PMC5349596.

Molecular target: Asp74 (UniProt position 74, WARYIDWVITT)
Test: UV-vis
Settings: room temperature (approx. 25 °C); not stated (no added salt; low-millimolar buffer mixture; pH adjusted with concentrated H2SO4); 0.89 mM citric acid, 0.89 mM MES, 1.1 mM TES, 0.78 mM TAPS, 1.1 mM CHES and 0.33 mM CAPS; Folded, retinal-bound (nearly 100% all-trans), detergent-solubilised; dark or light adaptation during the titration not stated

Work on “Rubrobacter xylanophilus rhodopsin (RxR) (Rubrobacter xylanophilus DSM 9941)” yielded a pKa of 1.3 ± 0.17.
